Positions count from the first letter of the chain named. In names and notes the source's numbering stands.
T1: ExoG-H140A (catalytically dead) (Homo sapiens, UniProt Q9Y2C4 42-368, H140A)
T1 sequence: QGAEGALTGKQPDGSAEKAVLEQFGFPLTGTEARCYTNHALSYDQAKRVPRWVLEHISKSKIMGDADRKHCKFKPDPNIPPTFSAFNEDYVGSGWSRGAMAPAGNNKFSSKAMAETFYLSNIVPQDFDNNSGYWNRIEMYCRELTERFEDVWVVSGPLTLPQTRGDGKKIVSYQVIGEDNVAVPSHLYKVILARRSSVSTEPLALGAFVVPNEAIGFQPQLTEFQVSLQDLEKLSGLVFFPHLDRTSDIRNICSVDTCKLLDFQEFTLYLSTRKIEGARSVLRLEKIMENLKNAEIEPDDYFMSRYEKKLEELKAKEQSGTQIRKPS

T2: ExoG-H140A/F168A (Homo sapiens, UniProt Q9Y2C4 42-368, H140A;F168A)
T2 sequence: T1 sequence with F127A

T3: ExoG-H140A/N176A (Homo sapiens, UniProt Q9Y2C4 42-368, H140A;N176A)
T3 sequence: T1 sequence with N135A

B1: 12-bp RNA/DNA hybrid (crystal) (DNA:RNA)
RNA: CGGGAUGUCACG
DNA: CGTGACATCCCG
modifications: 5'-phosphate on RNA strand; DNA strand 5'-OH
B2: human ExoG-H140A (catalytically dead mutant of Exonuclease G, without the N-terminal MLS) (enzyme, UniProt Q9Y2C4 42-368, looked up)
chain: T1 sequence
notes: source: E. coli Rosetta 2 (DE3) pLysS, purified (HisTrap HP, Superdex 200 gel filtration)
B3: 12-bp palindromic DNA (crystal) (dsDNA)
DNA 1: CGGGATATCCCG
DNA 2: CGGGATATCCCG
modifications: 5'-OH and 3'-OH
B4: 12-nt R2-DNA/DNA chimeric duplex (crystal) (mixed)
DNA 1: CGGGATGTCACG
DNA 2: CGTGACATCCCG
modifications: two 5'-end ribonucleotides and 5'-phosphate on scissile strand; complement DNA 5'-OH
B5: R2-DNA/DNA (mixed)
DNA 1: GCTTAACGCTGACTCGCTAC
DNA 2: GTAGCGAGTCAGCGTTAAGCACTATCATAGCCATCTGCCATTACTG
modifications: strand 1 nt 1-2 (GC) are ribonucleotides, rest DNA; 5'-phosphate on strand 1
B6: RNA/DNA (DNA:RNA)
RNA: GCUUAACGCUGACUCGCUAC
DNA: B5 DNA 2
modifications: strand 1 RNA with 5'-phosphate; strand 2 DNA
B7: DNA/DNA (dsDNA)
DNA 1: GCTTAACGCTGACTCGCTAC
DNA 2: B5 DNA 2
modifications: 5'-phosphate on strand 1

Legend:
[1] = target: T1, ExoG-H140A (catalytically dead); assay: crystal structure (2.8 A); Mg2+; one duplex per protomer; FP: 10 nM FAM substrate, 10 mM HEPES pH 7.4, 150 mM NaCl, 2.5 mM MgCl2; temperature not stated; settings: protein: recombinant; tags: N-terminal His; chain copies: 2; 12-bp duplex
[2] = target: the molecule itself; assay: crystal structure; ExoG-H140A co-crystallised with a 12-bp dsDNA, an RNA/DNA hybrid duplex or an R2-DNA/DNA chimeric duplex (protein to substrate 1:1.2, 2 mM MgCl2), hanging drop vapor diffusion at 4°C; ExoG dimer in the asymmetric unit, each protomer bound to one duplex
[3] = target: T1, ExoG-H140A (catalytically dead); assay: crystal structure (2.3 A); Mg2+; one duplex per protomer; FP: 10 nM FAM substrate, 10 mM HEPES pH 7.4, 150 mM NaCl, 2.5 mM MgCl2; temperature not stated; settings: protein: recombinant; tags: N-terminal His; chain copies: 2; blunt, self-complementary, 2 copies of strand
[4] = target: T1, ExoG-H140A (catalytically dead); assay: crystal structure (3.0 A); Mg2+; one duplex per protomer; FP: 10 nM FAM substrate, 10 mM HEPES pH 7.4, 150 mM NaCl, 2.5 mM MgCl2; temperature not stated; settings: protein: recombinant; tags: N-terminal His; chain copies: 2; 12-bp duplex
ExoG-H140A/F168A = target: T2, ExoG-H140A/F168A; assay: fluorescence polarization; 2.5 mM Mg2+; FP: 10 nM FAM substrate, 10 mM HEPES pH 7.4, 150 mM NaCl, 2.5 mM MgCl2; temperature not stated; settings: protein: recombinant; tags: N-terminal His; chain copies: 2; label: 3'-FAM strand 1; 5'-biotin strand 2; 20-bp duplex, 26-nt 3' overhang on strand 2
[5] = target: T1, ExoG-H140A (catalytically dead); assay: as above; settings: protein: recombinant; tags: N-terminal His; chain copies: 2; label: 3'-FAM strand 1; 5'-biotin strand 2; 20-bp duplex, 26-nt 3' overhang on strand 2
ExoG-H140A/N176A = target: T3, ExoG-H140A/N176A; assay: as above; settings: protein: recombinant; tags: N-terminal His; chain copies: 2; label: 3'-FAM strand 1; 5'-biotin strand 2; 20-bp duplex, 26-nt 3' overhang on strand 2

Row | Binder | Kd (ExoG-H140A/F168A) [nM] | Kd [5] [nM] | Kd (ExoG-H140A/N176A) [nM] | also measured
1 | B1 | – | – | – | binding result [1]: binds
2 | B2 | – | – | – | binding result [2]: binds
3 | B3 | – | – | – | binding result [3]: binds
4 | B4 | – | – | – | binding result [4]: binds
5 | B5 | 3150 ± 259 | 1030 ± 86 | 930 ± 63 | –
6 | B6 | 250 ± 14 | 190 ± 10 | 120 ± 8 | –
7 | B7 | 3930 ± 188 | 1320 ± 79 | 950 ± 63 | –
